The results in this text go back to patent US20160200789A1, “IL4 CONJUGATED TO ANTIBODIES AGAINST EXTRACELLULAR MATRIX COMPONENTS” (PHILOGEN S.P.A., priority 2013, published 2016).

The subject of test [1] is imiquimod (IMQ)-induced ear inflammation in C57BL/6 mice. In words: IMQ-induced inflammation model of psoriasis. Format: in vivo, mouse. As to conditions: day 13. The method, then: C57BL/6 mice (Charles River, Germany) were treated on each side of each ear with 5 mg Aldara cream (containing 0.25 mg Imiquimod). The treatment schedule is illustrated in FIG. 11A. The Aldara cream was applied every day for 5 days (on day 1, 2, 3, 4 5 and […]: each application is illustrated by an asterisk in FIG. 11A). Ear thickness was measured with a caliper before the application of the cream. […] Treatment was repeated on day 9 and 11 (each treatment event is illustrated by an arrow in FIG. 11A).

The target of the next test is T1, TNF (Homo sapiens, UniProt P01375).
T1 construct: host or cells: LM fibroblasts (mouse) as indicator cells
T1 sequence (P01375 77-233 limits assumed, species assumed): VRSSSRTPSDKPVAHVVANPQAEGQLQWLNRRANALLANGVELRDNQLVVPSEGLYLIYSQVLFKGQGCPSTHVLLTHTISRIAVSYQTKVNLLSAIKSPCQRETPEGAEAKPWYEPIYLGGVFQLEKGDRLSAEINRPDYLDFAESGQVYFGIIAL
Put plainly: Inhibition of TNF-mediated killing of LM fibroblasts. It counts as cell-based, mouse. An excerpt:
The murine fusion protein muTNFR-Fc (extracellular part of the murine p75-TNF receptor appended at the N-terminus of a murine IgG1 Fc portion, containing the hinge region) was expressed by stable transfection in CHO cells, according to the supplier's protocol. The fusion protein was purified from the culture supernatant by protein A chromatography, yielding a preparation which was pure in SDS-PAGE analysis and size exclusion chromatography (see FIGS. 2A and B). The biological activity of muTNFR-Fc was tested by inhibition of TNF-mediated killing of LM fibroblasts (see FIG. 2C). TNF inhibitors such as Enbrel™ and Humeira™ represent the standard of care in rheumatoid arthritis patients. muTNFR-Fc is a murine version of a TNF inhibitor for use in mouse models of the disease.

The subject of test [2] is CHS-induced ear inflammation in K14-VEGF-A mice. In words: Contact hypersensitivity-induced ear inflammation in K14-VEGF-A mice. Format: in vivo, mouse. As to conditions: day 15. An excerpt: A delayed-type hypersensitivity reaction was induced in the ear skin of female FVB mice that overexpress VEGF-A in the epidermis under control of the human keratin 14 promoter as previously described (Detmar et al., 1998; Kunstfeld et al., 2004; Xia et al., 2003). Heterozygous VEGF-A transgenic mice with no pre-existing inflammatory lesions were sensitized by topical application of a 2% oxazolone (4-ethoxymethylene-2-phenyl-2-oxazoline-5-one; Sigma) solution in acetone/olive oil (4:1 vol/vol) to the shaved abdomen (50 μl) and each paw (5 μl). Five days after sensitization, the ears were challenged by topical application of 20 μl of a 1% oxazolone solution. Therapy was started on day 7 and repeated at day 9, 11 and 13. […] Ear thickness was measured every other day and at day 15, mice were sacrificed and ear draining lymph nodes were weighted. The timeline for this experiment is illustrated in FIG. 13A. Each treatment event is indicated by an arrow.

B1: muTNFR-Fc: extracellular part of the murine p75-TNF receptor appended at the N-terminus of a murine IgG1 Fc portion; murine version of Enbrel (protein)
chain: VPAQVVLTPYKPEPGYECQISQEYYDRKAQMCCAKCPPGQYVKHFCNKTSDTVCADCEASMYTQVWNQFRTCLSCSSSCTTDQVEIRACTKQQNRVCACEAGRYCALKTHSGSCRQCMRLSKCGPGFGVASSRAPNGNVLCKACAPGTFSDTTSSTDVCRPHRICSILAIPGNASTDAVCAPESPTLSAIPRTLYVSQPEPTRSQPLDQEPGPSQTPSILTSLGSTPIIEQSTKGGVPRDCGCKPCICTVPEVSSVFIFPPKPKDVLTITLTPKVTCVVVDISKDDPEVQFSWFVDDVEVHTAQTKPREEQFNSTFRSVSELPIMHQDWLNGKEFKCRVNSAAFPAPIEKTISKTKGRPKAPQVYTIPPPKEQMAKDKVSLTCMITDFFPEDITVEWQWNGQPAENYKNTQPIMDTDGSYFVYSKLNVQKSNWEAGNTFTCSVLHEGLHNHHTEKSLSHSPGK
As for B1, the “ear draining lymph nodes (weight)” value in test [1] and in test [2] was “smaller” in each case. For the same molecule, the “inhibition of TNF induced killing of mouse fibroblasts” value with TNF is listed as “inhibits TNF induced killing of mouse fibroblasts”.
